Results reported in the nanobody polyreactivity screen of Harvey et al. (2022).

assay: yeast display, Sf9 membrane polyspecificity reagent, FACS + sequencing; frameworks hold sequencing errors
Summary of the method: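 Using colony PCR, genes from sorted yeast display clones were amplified, then sequenced on MiSeq at 2 × 250 and filtered by CDR length. The clones had been stained with 10% biotinylated, detergent-solubilized Sf9 membrane reagent for 1 hour at 4 °C and sorted by FACS into low and high (top ~1%) gates on anti-HA and streptavidin fluorescence. Polyreactivity labels come from the gate of origin.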

| Sequence | polyreactivity (PSR sort gate) |
| --- | --- |
| QVQLVESGGGLVQAGGSLRLSCAASGRIFYRNAMGWYRPAPGKERELVASITSAGRTYYADSVKGRFTISRDNAKNTVYLQMNSLKPEDTAVYYCAVRVAVLLNLYGYWGQGTQVTVSS | low polyreactivity |
| QVQLVESGGGLVQAGGSLRLSCAASGRTFAYNAMGWYRQAPGKERELVAAISRRGGSTFYADSVKGRFTISRDNAKNTVYLQMNSLKPEDTAVYYCARDSYYIGRWLYYWGQGTQVTVSS | high polyreactivity |
| QVQLVESGGGLVQAGGSLRLSCAATGFTFYKNAMGWYRQAAGKDRELVAAITRGGTTNYADSVMGRFTISRDNAKNTVYLQMNSLKEEDTAVYYCAKQGRYLTRYGYWGQGTQVTVSS | high polyreactivity |
| QVQLVESGGGLVQAGGSLRLSCAASGRTFRYYAMGWYRQAPGKERELVAAISSSGDRTYYADSVKGRFTISRDNAKNTVYLQMNSLKPEDTAVFYCAADRGARGDYWGQGTQVTVSS | high polyreactivity |
| QVQLVESGGGLVQAGGSLRVSCAASGSIFYGNAMGWYRQAPGKARELVAAISNVGRTDYADSVKGRFTISRDNAKPTVYLQMNSLKPEDTADYSCAAGVYSGSNRYYAPRSWFGYYYWGQGTQVTVSS | low polyreactivity |
| QVQLVESGGGLVQAGGSLRLSCAASGGTFGYYTMGWYRPAPGKERELVSAISSGGGTDYADSVKGRFTISRDNAKNTVYLQMNSLKPEDTAVYYCNAKWLEWHYVFLPSYTMDYWGQGTQVTVSS | low polyreactivity |
| QVQLVESGGGLVQAGGSLRLSCAASGSTFTKYAMGWYRQAPGQERELVAAITASGGNTYYADSVKGRFTISRDNAKNTVYLQMNSLKPEDTAVYSCAAVTGLFYHPFYKYNYWGQGTQVTVSS | high polyreactivity |
| QVQLVESGGGLVQAGGSLRLSCAASGRTFLVYVMGWYRQAPGKERELVASITYSGGSTYYADSVKGRFTISRDNAKNTVYLQMNSLKPEDTAVYYCAAAQGRQPYRARGLYYYWGQGTQVTVSS | high polyreactivity |
| QVQLVESGGALVQAGGSLRLSCAASGITFFTNAMGWYRQAPGKERELVAAISSGGRTYYADSVKGRFTISRDNAKNTVYLQMKSLKPEDTAVYYCAKRSYFYPDYYWGQGTQVTVSS | high polyreactivity |
| QVQLVESGGGLVQAGGSLRLSCAASGSTLYPYDMGWYRQAPGKERELVAAIDSGGSTNYADSVKGRFTISRDNAKNTVYLQMNSLKPEDTAVYYCATEILTAARDTVVYQFYLGYYYWGQGTQVTVSS | low polyreactivity |
| QVQLVESGGGLVQAGGSLRLSCAASGSIFNWYAMGWYTQAPGKERELVAAISWRCGSTYYADSVKGRFTISRDNAKITVYLQMNSLKPEDTAVYYCAADGGADHMDYWGQGTQVTVSS | high polyreactivity |
| QVQLVESGGGLVQAGGSLRLSCAASGRTFTINAMGWYRQAPGKERELVATIRVSGGSTYYADSVKGRFTISRDNAKNTVYLQMNSLKPEDTAVYYCAKGGTYFYAPAYDYWGQGTQVTVSS | low polyreactivity |
| QVQLVESGGGLVQAGGSLRLSCAASGIIFYRNAMGWYRQAPGKERELVAAISKGGGSTYYADSVKGRFTISRDNAKNTVYLQMNSLKPEDTAVYYCAAKAYTYYARIGFDYWGQGTQVTVSS | high polyreactivity |
| QVQPVESVGGLVQAGGSLRLSGAASGSIFAVYAMRWYRQPPGNERELVARITRGGGSTYYADSVKGRVTISRDNAKNTVYLQMNSLKPEDTAVYYCAAARRSQYRTWMNYWGQGTQVTVSS | high polyreactivity |
| QVQLVESGGGLVQAGGSLRLSCAASGFISLRNTMGWYRQAPGKERELVAAINWSGGSTYYADSVKGRFTISRDNAKNTVYLQMNSLKPEDTAVYYCAKGPWPPIYRLFPGYAKFGYWGQGTQVTVSS | low polyreactivity |
| QVQLVESGGGLVQAGGSLRLTCAASGSTFITYAMGWYRQAPGKERELVAAIRVIGGRTYYADSVKGRFTISRDNAKNTVYLQMNSLKPEDTAVYYCAARPYKSYGYHYSYDYWGQGTQVTVSS | high polyreactivity |
| QVQLVESGGGLVQAGGSLRLSCAASGSTFARNVMGWYRQAPGKERELVAAISWRGGRTYYADSVKGRFTISRDNAKNTVYLQMNSLKPEDTAVYYCAAGRSFRGSYWYEYWGQGTKVTVSS | high polyreactivity |
